Results from the supplement of paper PMC10567573.

B1: CHMP4C (parent)
chain: TNIRLPNVPSSSLPAQPNRKPGMS
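Further: lentivirally expressed fusions sorted by FACS into six bins by GFP to DsRed ratio, PSI derived from sequencing read proportions per bin multiplied by bin number.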

Variants of: B1
Assay: protein stability index of a GFP-peptide fusion (GPS, HEK-293T) (PSI 1-6); higher = more stable
Settings: c terminus: a fixed tail appended
TNIRQPNVPSSSLPAQPNRKPGMS [L5Q] showed a protein stability index of 4.69.
In the case of TNIRVPNVPSSSLPAQPNRKPGMS [L5V], the protein stability index is reported as 4.7.
For TNIRWPNVPSSSLPAQPNRKPGMS [L5W], the protein stability index was 4.31.
TNIRAPNVPSSSLPAQPNRKPGMS [L5A] gave a protein stability index of 4.71.
TNIRFPNVPSSSLPAQPNRKPGMS [L5F] gave a protein stability index of 4.38.
Work on TNIRNPNVPSSSLPAQPNRKPGMS [L5N] yielded a protein stability index of 4.68.
TNIRDPNVPSSSLPAQPNRKPGMS [L5D] gave a protein stability index of 5.05.
TNIRRPNVPSSSLPAQPNRKPGMS [L5R] gave a protein stability index of 4.42.
Work on TNIRGPNVPSSSLPAQPNRKPGMS [L5G] yielded a protein stability index of 5.1.
In the case of TNIRYPNVPSSSLPAQPNRKPGMS [L5Y], the protein stability index is reported as 4.58.
In the case of TNIRHPNVPSSSLPAQPNRKPGMS [L5H], the protein stability index is reported as 4.62.
With TNIRIPNVPSSSLPAQPNRKPGMS [L5I] the protein stability index was 4.61.
With TNIREPNVPSSSLPAQPNRKPGMS [L5E] the protein stability index was 4.46.
Work on TNIRSPNVPSSSLPAQPNRKPGMS [L5S] yielded a protein stability index of 4.18.
TNIRCPNVPSSSLPAQPNRKPGMS [L5C] gave a protein stability index of 4.92.
TNIRKPNVPSSSLPAQPNRKPGMS [L5K] gave a protein stability index of 4.71.
In the case of TNIRTPNVPSSSLPAQPNRKPGMS [L5T], the protein stability index is reported as 4.74.
Variant TNIRPPNVPSSSLPAQPNRKPGMS [L5P] has a protein stability index of 4.88.
In the case of TNIRMPNVPSSSLPAQPNRKPGMS [L5M], the protein stability index is reported as 4.76.
For TVIRLPNVPSSSLPAQPNRKPGMS [N2V], the protein stability index was 4.16.
With TYIRLPNVPSSSLPAQPNRKPGMS [N2Y] the protein stability index was 3.51.
TWIRLPNVPSSSLPAQPNRKPGMS [N2W] gave a protein stability index of 3.01.
In the case of TTIRLPNVPSSSLPAQPNRKPGMS [N2T], the protein stability index is reported as 4.59.
With TSIRLPNVPSSSLPAQPNRKPGMS [N2S] the protein stability index was 4.7.
Work on TNIMLPNVPSSSLPAQPNRKPGMS [R4M] yielded a protein stability index of 4.51.
With TNITLPNVPSSSLPAQPNRKPGMS [R4T] the protein stability index was 4.61.
Work on TNIQLPNVPSSSLPAQPNRKPGMS [R4Q] yielded a protein stability index of 4.19.
With TNIKLPNVPSSSLPAQPNRKPGMS [R4K] the protein stability index was 3.88.
TNISLPNVPSSSLPAQPNRKPGMS [R4S] showed a protein stability index of 4.29.
Work on TNILLPNVPSSSLPAQPNRKPGMS [R4L] yielded a protein stability index of 4.26.
With TNIALPNVPSSSLPAQPNRKPGMS [R4A] the protein stability index was 4.79.
Work on TNIHLPNVPSSSLPAQPNRKPGMS [R4H] yielded a protein stability index of 4.06.
TNIILPNVPSSSLPAQPNRKPGMS [R4I] gave a protein stability index of 3.37.
TNIWLPNVPSSSLPAQPNRKPGMS [R4W] gave a protein stability index of 2.96.
Work on TNIYLPNVPSSSLPAQPNRKPGMS [R4Y] yielded a protein stability index of 4.24.
Variant TNICLPNVPSSSLPAQPNRKPGMS [R4C] has a protein stability index of 4.77.
Variant TNIGLPNVPSSSLPAQPNRKPGMS [R4G] has a protein stability index of 4.69.
For TNIELPNVPSSSLPAQPNRKPGMS [R4E], the protein stability index was 4.68.
With TNIVLPNVPSSSLPAQPNRKPGMS [R4V] the protein stability index was 4.35.
Work on TNIDLPNVPSSSLPAQPNRKPGMS [R4D] yielded a protein stability index of 4.34.
In the case of TNIFLPNVPSSSLPAQPNRKPGMS [R4F], the protein stability index is reported as 4.18.
TNIPLPNVPSSSLPAQPNRKPGMS [R4P] gave a protein stability index of 4.73.
Variant TNINLPNVPSSSLPAQPNRKPGMS [R4N] has a protein stability index of 2.96.
In the case of TNIRLPLVPSSSLPAQPNRKPGMS [N7L], the protein stability index is reported as 4.67.
Variant TNIRLPCVPSSSLPAQPNRKPGMS [N7C] has a protein stability index of 4.56.
With TNIRLPGVPSSSLPAQPNRKPGMS [N7G] the protein stability index was 4.76.
Work on TNIRLPIVPSSSLPAQPNRKPGMS [N7I] yielded a protein stability index of 3.95.
For TNIRLPHVPSSSLPAQPNRKPGMS [N7H], the protein stability index was 4.62.
Variant TNIRLPMVPSSSLPAQPNRKPGMS [N7M] has a protein stability index of 4.82.
For TNIRLPFVPSSSLPAQPNRKPGMS [N7F], the protein stability index was 3.38.
Variant TNIRLPDVPSSSLPAQPNRKPGMS [N7D] has a protein stability index of 4.49.
With TNIRLPQVPSSSLPAQPNRKPGMS [N7Q] the protein stability index was 4.1.
In the case of TNIRLPKVPSSSLPAQPNRKPGMS [N7K], the protein stability index is reported as 4.52.
TNIRLPAVPSSSLPAQPNRKPGMS [N7A] showed a protein stability index of 4.61.
TNIRLPPVPSSSLPAQPNRKPGMS [N7P] gave a protein stability index of 5.37.
With TNIRLPEVPSSSLPAQPNRKPGMS [N7E] the protein stability index was 4.26.
For TNIRLHNVPSSSLPAQPNRKPGMS [P6H], the protein stability index was 3.02.
In the case of TNIRLQNVPSSSLPAQPNRKPGMS [P6Q], the protein stability index is reported as 3.19.
With TNIRLGNVPSSSLPAQPNRKPGMS [P6G] the protein stability index was 4.26.
For TNIRLNNVPSSSLPAQPNRKPGMS [P6N], the protein stability index was 4.18.
TNIRLCNVPSSSLPAQPNRKPGMS [P6C] gave a protein stability index of 3.56.
In the case of TNIRLDNVPSSSLPAQPNRKPGMS [P6D], the protein stability index is reported as 4.36.
TNIRLVNVPSSSLPAQPNRKPGMS [P6V] showed a protein stability index of 3.1.
TNIRLANVPSSSLPAQPNRKPGMS [P6A] gave a protein stability index of 3.96.
TNIRLENVPSSSLPAQPNRKPGMS [P6E] gave a protein stability index of 4.48.
Variant TNIRLWNVPSSSLPAQPNRKPGMS [P6W] has a protein stability index of 3.34.
TNIRLSNVPSSSLPAQPNRKPGMS [P6S] gave a protein stability index of 4.44.
Work on TNIRLINVPSSSLPAQPNRKPGMS [P6I] yielded a protein stability index of 2.71.
With TNIRLTNVPSSSLPAQPNRKPGMS [P6T] the protein stability index was 3.75.
In the case of TNIRLMNVPSSSLPAQPNRKPGMS [P6M], the protein stability index is reported as 3.36.
Work on TNIRLFNVPSSSLPAQPNRKPGMS [P6F] yielded a protein stability index of 3.28.
For TNIRLYNVPSSSLPAQPNRKPGMS [P6Y], the protein stability index was 2.66.
Work on TNIRLRNVPSSSLPAQPNRKPGMS [P6R] yielded a protein stability index of 4.04.
TNIRLKNVPSSSLPAQPNRKPGMS [P6K] gave a protein stability index of 4.23.
Work on TNIRLLNVPSSSLPAQPNRKPGMS [P6L] yielded a protein stability index of 2.99.
With TNFRLPNVPSSSLPAQPNRKPGMS [I3F] the protein stability index was 4.2.
Work on TNERLPNVPSSSLPAQPNRKPGMS [I3E] yielded a protein stability index of 4.92.
In the case of TNVRLPNVPSSSLPAQPNRKPGMS [I3V], the protein stability index is reported as 4.54.
Work on TNCRLPNVPSSSLPAQPNRKPGMS [I3C] yielded a protein stability index of 4.55.
TNMRLPNVPSSSLPAQPNRKPGMS [I3M] showed a protein stability index of 4.76.
With TNHRLPNVPSSSLPAQPNRKPGMS [I3H] the protein stability index was 4.62.
With TNTRLPNVPSSSLPAQPNRKPGMS [I3T] the protein stability index was 4.82.
For TNGRLPNVPSSSLPAQPNRKPGMS [I3G], the protein stability index was 4.72.
For TNWRLPNVPSSSLPAQPNRKPGMS [I3W], the protein stability index was 4.13.
For TNARLPNVPSSSLPAQPNRKPGMS [I3A], the protein stability index was 4.73.
In the case of TNNRLPNVPSSSLPAQPNRKPGMS [I3N], the protein stability index is reported as 4.81.
Variant TNKRLPNVPSSSLPAQPNRKPGMS [I3K] has a protein stability index of 3.99.
TNSRLPNVPSSSLPAQPNRKPGMS [I3S] showed a protein stability index of 4.71.
TNLRLPNVPSSSLPAQPNRKPGMS [I3L] gave a protein stability index of 4.26.
With TNYRLPNVPSSSLPAQPNRKPGMS [I3Y] the protein stability index was 4.33.
With TNQRLPNVPSSSLPAQPNRKPGMS [I3Q] the protein stability index was 4.87.
With TNPRLPNVPSSSLPAQPNRKPGMS [I3P] the protein stability index was 4.77.
Work on TNDRLPNVPSSSLPAQPNRKPGMS [I3D] yielded a protein stability index of 4.63.
With TNRRLPNVPSSSLPAQPNRKPGMS [I3R] the protein stability index was 4.41.
